56 molecules from patent US20120045393A1 (priority 2009, published 2012) can be followed below.

Non-standard residues stand in square brackets, D forms with d. Primed or numbered codes have the meaning given here. DO3A10CM″ = chelating group at the N-terminus (X in the sequence tables); azaGly′ = aza-glycine residue at the C-terminus, with NH2; Bpa = N[C@@H](Cc1ccc(C(=O)c2ccccc2)cc1)C(=O)O; d2Nal = N[C@H](Cc1ccc2ccccc2c1)C(=O)O; 3Pal = N[C@@H](Cc1cccnc1)C(=O)O; DO3A10CM = not defined here; Bpa4 = non-natural residue; Dnalg1 = not defined here; Ampa4 = not defined here; Ampg4 = not defined here; Gufe4 = not defined here; dAfe4 = not defined here; Thz′ = not defined here; Tha = not defined here; azaGly = NNC(=O)O; Sar = CNCC(=O)O

The chains are these.
B1: BRU-3058 (peptide)
peptide: DO3A10CM-[d2Nal][Gufe4]WSH[dR]W[Bpa]P[azaGly′]-NH2
modifications: reading uncertain; also: printed as DO3A10CM-Dnal2-Gufe4-Trp-Ser-His-Darg-Trp-Bpa4-Pro-azaGly-NH2
B2: BRU-2964 (peptide)
peptide: DO3A10CM-[d2Nal]RWMH[dR]W[Bpa]P[azaGly]-NH2
modifications: reading uncertain; also: printed as DO3A10CM-Dnal2-Arg-Trp-Met-His-Darg-Trp-Bpa4-Pro-azaGly-NH2
B3: BRU-2811 (peptide)
peptide: HWSHXWXPX
modifications: N-terminal DO3A10CM on His (AA1 absent); Darg at AA6; Bpa4 at AA8; azaGly-NH2 at AA10
B4: BRU-3098 (peptide)
peptide: KXRWSHXWXPX
modifications: Lys(DO3A10CM) before 1 (chelator on the Lys side chain); Dnal2 at 1; Darg at 6; Bpa4 at 8; azaGly-NH2 at 10
B5: BRU-2963 (peptide)
peptide: XXRWSHXWXPX
modifications: N-terminal DO3A10CM; Ambz4 linker before 1; Dnal2 at 1; Darg at 6; Bpa4 at 8; azaGly-NH2 at 10
B6: BRU-3059 (peptide)
peptide: DO3A10CM-[d2Nal][Ampa4]WSH[dR]W[Bpa]P[azaGly′]-NH2
modifications: reading uncertain; also: printed as DO3A10CM-Dnal2-Ampa4-Trp-Ser-His-Darg-Trp-Bpa4-Pro-azaGly-NH2
B7: BRU-2962 (peptide)
peptide: GXRWSHXWXPX
modifications: N-terminal DO3A10CM; Gly linker before 1; Dnal2 at 1; Darg at 6; Bpa4 at 8; azaGly-NH2 at 10
B8: BRU-3060 (peptide)
peptide: DO3A10CM-[d2Nal][Ampg4]WSH[dR]W[Bpa]P[azaGly′]-NH2
modifications: reading uncertain; also: printed as DO3A10CM-Dnal2-Ampg4-Trp-Ser-His-Darg-Trp-Bpa4-Pro-azaGly-NH2
B9: BRU-2957 (peptide)
peptide: XRWXHXWXPX
modifications: DO3A10CM on N-terminus; AA1 Dnal2; AA4 Pal4; AA6 Darg; AA8 Bpa4; AA10 azaGly-NH2
B10: BRU-3112 (peptide)
peptide: XRXSHXWXPX
modifications: DO3A10CM on N-terminus; AA1 Dnal2; AA3 Dtrp; AA6 Darg; AA8 Bpa4; AA10 azaGly-NH2
B11: BRU-2719 (peptide)
peptide: XXWSHXWXPX
modifications: DO3A10CM on N-terminus; AA1 Sar; AA2 4ClPhe; AA6 Darg; AA8 Bpa4; AA10 azaGly-NH2
B12: BRU-3067 (peptide)
peptide: GXRWSHXWXPX
modifications: DO3A10CM-Gly (linker) on N-terminus; AA1 Dtic; AA6 Darg; AA8 Bpa4; AA10 azaGly-NH2
B13: BRU-3109 (peptide)
peptide: XRXSHXWXPX
modifications: DO3A10CM on N-terminus; AA1 Dnal2; AA3 Pal3; AA6 Darg; AA8 Bpa4; AA10 azaGly-NH2
B14: BRU-3052 (peptide)
peptide: GXRWSHXWXPX
modifications: DO3A10CM-Gly (linker) on N-terminus; AA1 Tic; AA6 Darg; AA8 Bpa4; AA10 azaGly-NH2

The target in the first experiment is LHRH receptor (LHRH binding sites) on EFO-27 human ovarian cancer cells (human). Description: competition with [125I-Tyr8]BRU-2477, EFO-27 cells.
As to DO3A10CM-[d2Nal]RWSH[dR]W[Bpa4]PGR-NH2 (reading uncertain) [BRU-2969], the EC50 was 240 nM.
In turn, XHWSHXWXPX (AA1 Sar; AA6 Darg; AA8 Bpa4; AA10 azaGly-NH2) [BRU-2441] showed an EC50 of 140 nM.
On to XRWSHXWXPX (N-terminal DO3A10CM; Damfe4 at 1; Darg at 6; Bpa4 at 8; azaGly-NH2 at 10) [BRU-2997], for which the EC50 was 330 nM.
The same measure, in the same setting: in the case of B1 it was 260 nM; in that of B2, 220 nM; in that of XRRSHXWXPX (N-terminal DO3A10CM; Dnal2 at 1; Darg at 6; Bpa4 at 8; azaGly-NH2 at 10) [BRU-3111], 250 nM.
In the case of XRWSHXWXPX (N-terminal DO3A10CM; Dnal2 at 1; Darg at 6; Nal2 at 8; azaGly-NH2 at 10) [BRU-3027], the concentration giving a half-maximal response (EC50) was determined as 370 nM.
On the same count and under the same terms, in the case of HRWSHXWXPX (N-terminal DO3A10CM; Darg at 6; Bpa4 at 8; azaGly-NH2 at 10) [BRU-3025] it was 470 nM; in that of B3, 360 nM; in that of B4, 410 nM.
Same read-out and setting: then B5, with 280 nM; and XRWSHRWXPX (N-terminal DO3A10CM; Dnal2 at 1; Bpa4 at 8; azaGly-NH2 at 10 (L-Arg at 6)) [BRU-3031], with 310 nM.
XRFSHXWXPX (N-terminal DO3A10CM; Dnal2 at 1; Darg at 6; Bpa4 at 8; azaGly-NH2 at 10) [BRU-3106] returned a concentration for a half-maximal effect (EC50) of 430 nM.
Still for that read-out and setting: then XHWSHXWXPX (Ac-Dnal2 at 1; Darg at 6; Bpa4 at 8; azaGly-NH2 at 10) [BRU-2803], with 260 nM.
As to RRWSHXWXPX (N-terminal DO3A10CM; Darg at 6; Bpa4 at 8; azaGly-NH2 at 10) [BRU-3050], the EC50 stood at 310 nM.
The same measure, in the same setting: in the case of B6 it was 410 nM; in that of XHWSHXWXPX (Ac-Amfe4 at 1; Darg at 6; Bpa4 at 8; azaGly-NH2 at 10) [BRU-2839], 250 nM.
Same read-out and setting: then XRWNHXWXPX (N-terminal DO3A10CM; Dnal2 at 1; Darg at 6; Bpa4 at 8; azaGly-NH2 at 10) [BRU-2956], with 270 nM.
The same measure, in the same setting: then B7, with 470 nM; and XHWSHXWXPX (pGlu at 1; Darg at 6; Bpa4 at 8; azaGly-NH2 at 10) [BRU-2822], with 420 nM.
Take B8: the EC50 was 340 nM.

In another experiment the target is LHRH binding sites on EFO-27 human ovarian cancer cells (human). Nature of the experiment: competition with [125I-Tyr8]BRU-2477 on EFO-27 cells.
XRWSHXWXPX (DO3A10CM on N-terminus; AA1 Cafe4; AA6 Darg; AA8 Bpa4; AA10 azaGly-NH2) [BRU-3092] registered a half-maximal effective concentration (EC50) of 2000 nM.
Still for that read-out and setting: in the case of XHWSHXWXPX (DO3A10CM on N-terminus; AA1 Sar; AA6 Darg; AA8 Tyr(OBz); AA10 azaGly-NH2) [BRU-2820] it was 1570 nM; in that of DO3A10CM-[d2Nal]RWSH[dR]W[Bpa4]PGR-NH2 (reading uncertain) [BRU-2969], 240 nM; in that of B9, 840 nM.
In turn, XHWSHXWXPX (DO3A10CM on N-terminus; AA1 Sar; AA6 Darg; AA8 Ing2; AA10 azaGly-NH2) [BRU-2765] came in with a concentration giving a half-maximal response (EC50) of 8710 nM.
The same measure, in the same setting: then {DO3A10CM″}-[Sar]HWSH[dR]WYP[azaGly]-NH2 [BRU-2758], with 10000 nM; and XRWSHXWXPX (DO3A10CM on N-terminus; AA1 Sar; AA6 Darg; AA8 Bpa4; AA10 azaGly-NH2) [BRU-2817], with 1700 nM; and XHWSHXWXPX (AA1 Ac-Amfe4 with (DO3A10CM) as printed; AA6 Darg; AA8 Bpa4; AA10 azaGly-NH2) [BRU-2881], with 1380 nM.
Same read-out and setting: in the case of XHWSHXWXPX (DO3A10CM on N-terminus; AA1 Sar; AA6 Darg; AA8 Nal1; AA10 azaGly-NH2) [BRU-2720] it was 540 nM.
For XHWSHXWXPX (AA1 Sar; AA6 Darg; AA8 Bpa4; AA10 azaGly-NH2) [BRU-2441], the concentration giving a half-maximal response (EC50) worked out at 140 nM and the times more potent than BRU-2439 stood at 2 times.
In the case of XHWSHXWXPX (DO3A10CM on N-terminus; AA1 Dtyr; AA6 Darg; AA8 Bpa4; AA10 azaGly-NH2) [BRU-2870], the 50% effective concentration (EC50) was 10000 nM.
Same read-out and setting: in the case of B10 it was 850 nM; in that of XHWSHXWXPX (DO3A10CM on N-terminus; AA1 Sar; AA6 Darg; AA8 Pal3; AA10 azaGly-NH2) [BRU-2726], 17400 nM.
The same measure, in the same setting: then DO3A10CM-[d2Nal]RWSR[dW]W[Bpa]P[azaGly]-NH2 (reading uncertain) [BRU-3001], with 3280 nM; and DO3A10CM-[Sar][dAfe4]WSH[dR]W[Bpa]P[azaGly]-NH2 (reading uncertain) [BRU-2815], with 7250 nM; and B1, with 260 nM.
On the same count and under the same terms, in the case of {DO3A10CM″}-[Sar][His(pime)]WSH[dR]W[Bpa]P[azaGly]-NH2 [BRU-2759] it was 10000 nM; in that of XHWSHXWXPX (DO3A10CM on N-terminus; AA1 Sar; AA6 Darg; AA8 Dtyr(OBz); AA10 azaGly-NH2) [BRU-2819], 770 nM.
Regarding XHWSHXWXPX (DO3A10CM on N-terminus; AA1 Sar; AA6 Darg; AA8 Bpa(NOH); AA10 azaGly-NH2) [BRU-2907], the concentration for a half-maximal effect (EC50) amounted to 1900 nM.
Still for that read-out and setting: in the case of XHWSHXWXPX (DO3A10CM on N-terminus; AA1 Sar; AA6 Darg; AA8 Aic2; AA10 azaGly-NH2) [BRU-2764] it was 4310 nM.
Molecule XRWSXXWXPX (DO3A10CM on N-terminus; AA1 Dnal2; AA5 Tha; AA6 Darg; AA8 Bpa4; AA10 azaGly-NH2) [BRU-2958] returned a concentration for a half-maximal effect (EC50) of 710 nM.
For XHWSHXWXPX (DO3A10CM on N-terminus; AA1 Sar; AA6 Darg; AA8 Amfe4; AA10 azaGly-NH2) [BRU-2760], the EC50 is 3550 nM.
On the same count and under the same terms, in the case of DO3A10CM-G[Dnalg1]HWSH[dR]W[Bpa]P[azaGly]-NH2 (reading uncertain) [BRU-2770] it was 2700 nM; in that of B11, 630 nM; in that of DO3A10CM-G[Thz′]HWSH[dR]W[Bpa]P[azaGly]-NH2 (reading uncertain) [BRU-2728], 3150 nM.
The same measure, in the same setting: then XHWSHXWXPX (DO3A10CM on N-terminus; AA1 Sar; AA6 Darg; AA8 Tha; AA10 azaGly-NH2) [BRU-2742], with 10000 nM; and XHWSHXWXPX (DO3A10CM on N-terminus; AA1 EtGly; AA6 Darg; AA8 Bpa4; AA10 azaGly-NH2) [BRU-2788], with 210 nM; and XRWSHXWXPX (DO3A10CM on N-terminus; AA1 Nal2; AA6 Darg; AA8 Bpa4; AA10 azaGly-NH2) [BRU-3051], with 620 nM.
The same measure, in the same setting: in the case of B12 it was 510 nM; in that of XHWSHXWXPX (DO3A10CM on N-terminus; AA1 Ambz4; AA6 Darg; AA8 Bpa4; AA10 azaGly-NH2) [BRU-2737], 1400 nM.
The molecule B6 gave an EC50 of 410 nM.
On the same count and under the same terms, then DO3A10CM-[Sar][3Pal]WSH[dR]W[Bpa]P[azaGly]-NH2 (reading uncertain) [BRU-2818], with 1620 nM.
Still for that read-out and setting: then {DO3A10CM″}-[Sar][His(pime)]WS[Tha][dR]W[Bpa]P[azaGly]-NH2 (reading uncertain) [BRU-2739], with 5280 nM.
On the same count and under the same terms, then {DO3A10CM″}-[Sar][Tha]WS[Tha][dR]W[Bpa]P[azaGly]-NH2 (reading uncertain) [BRU-2762], with 15000 nM; and B13, with 730 nM.
In turn, XHWSHXWXPX (DO3A10CM on N-terminus; AA1 Nal2; AA6 Darg; AA8 Bpa4; AA10 azaGly-NH2) [BRU-2809] displayed a concentration giving a half-maximal response (EC50) of 3540 nM.
Molecule DO3A10CM-[Sar][Tha]WSH[dR]W[Bpa]P[azaGly]-NH2 (reading uncertain) [BRU-2768] showed an EC50 of 12800 nM.
For the molecule B14, the EC50 amounted to 550 nM.
On the same count and under the same terms, in the case of XRWSXXWXPX (DO3A10CM on N-terminus; AA1 Dnal2; AA5 Cit; AA6 Darg; AA8 Bpa4; AA10 azaGly-NH2) [BRU-3030] it was 930 nM; in that of B8, 340 nM.
